From paper PMC10786891, “Massively parallel profiling of RNA-targeting CRISPR-Cas13d” come the findings set out here.

Numbering of substitutions follows the chain as printed. Names and notes keep the numbering of the source.

One may read the Kd as the constant that tells how readily two partners part at equilibrium. Lower therefore signals higher affinity.

Sequences and labels used below:
T1: EsCas13d, nuclease-dead (Eubacterium siraeum, UniProt B0MS50, R295A;H300A;R849A;H854A)
T1 sequence: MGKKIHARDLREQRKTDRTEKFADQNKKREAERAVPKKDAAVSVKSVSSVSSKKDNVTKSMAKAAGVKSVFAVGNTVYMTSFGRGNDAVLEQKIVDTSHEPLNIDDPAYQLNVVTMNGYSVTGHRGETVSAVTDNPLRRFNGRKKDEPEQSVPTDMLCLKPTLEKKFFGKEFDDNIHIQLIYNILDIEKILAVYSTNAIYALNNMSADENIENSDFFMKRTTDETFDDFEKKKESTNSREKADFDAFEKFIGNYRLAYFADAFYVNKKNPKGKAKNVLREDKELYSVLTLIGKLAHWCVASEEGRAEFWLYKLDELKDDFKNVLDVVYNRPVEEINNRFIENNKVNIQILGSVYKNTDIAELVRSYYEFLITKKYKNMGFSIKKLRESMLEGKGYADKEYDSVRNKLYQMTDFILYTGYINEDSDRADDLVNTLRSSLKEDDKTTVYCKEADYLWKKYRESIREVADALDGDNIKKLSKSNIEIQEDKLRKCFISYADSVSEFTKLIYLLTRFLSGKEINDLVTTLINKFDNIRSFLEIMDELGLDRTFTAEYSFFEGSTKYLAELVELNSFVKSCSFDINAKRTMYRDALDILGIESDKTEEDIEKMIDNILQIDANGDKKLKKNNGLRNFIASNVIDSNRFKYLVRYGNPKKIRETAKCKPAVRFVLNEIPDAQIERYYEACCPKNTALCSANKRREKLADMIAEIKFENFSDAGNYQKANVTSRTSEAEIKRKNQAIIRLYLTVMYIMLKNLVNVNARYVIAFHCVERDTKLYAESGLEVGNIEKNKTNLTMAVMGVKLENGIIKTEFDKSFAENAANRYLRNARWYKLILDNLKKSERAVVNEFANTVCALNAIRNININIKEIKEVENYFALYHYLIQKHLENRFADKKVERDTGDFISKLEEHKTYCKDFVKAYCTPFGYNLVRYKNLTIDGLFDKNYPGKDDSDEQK

B1: target 1 insG 3' of 9,insA 3' of 3 (mixed)
RNA 1: CACCCGUGCAAAAAUGCAGGGGUCUAAAACUGAGCGGAUAACCUCUCUAUGG
RNA 2: GGGAAUGGAUCCACAUCUACGAAUUCGUACCAUAGAGAGGUUAGUCCGCUACACCGAGAUCGGAAGAGCACACGU
B2: target 1 insC 3' of 15,insA 3' of 12 (mixed)
RNA 1: B1 RNA 1
RNA 2: GGGAAUGGAUCCACAUCUACGAAUUCGUACCAUAGAGCAGGAUUAUCCGCUCACCGAGAUCGGAAGAGCACACGU
B3: target 1 C7U,G15C (mixed)
RNA 1: B1 RNA 1
RNA 2: GGGAAUGGAUCCACAUCUACGAAUUCGUACCAUAGACAGGUUAUUCGCUCACCGAGAUCGGAAGAGCACACGU
B4: target 1 insC 3' of 9,insU 3' of 9 (mixed)
RNA 1: B1 RNA 1
RNA 2: B1 RNA 2 with G44C, C46U, G48C, C49G, U50C, A51U
B5: target 1 G13A,U19A (mixed)
RNA 1: B1 RNA 1
RNA 2: B3 RNA 2 with U33A, C37G, G39A, U45C
B6: target 1 insU 3' of 22,insU 3' of 15 (mixed)
RNA 1: B1 RNA 1
RNA 2: GGGAAUGGAUCCACAUCUACGAAUUCGUACUCAUAGAGUAGGUUAUCCGCUCACCGAGAUCGGAAGAGCACACGU
B7: target 1 insA 3' of 22,insC 3' of 3 (mixed)
RNA 1: B1 RNA 1
RNA 2: GGGAAUGGAUCCACAUCUACGAAUUCGUACACAUAGAGAGGUUAUCCGCUCCACCGAGAUCGGAAGAGCACACGU
B8: target 1 insA 3' of 4,insC 3' of 3 (mixed)
RNA 1: B1 RNA 1
RNA 2: B1 RNA 2 with G44U, U45C, C47G, G48C, C49A, A51C
B9: target 1 insU 3' of 5,insU 3' of 4 (mixed)
RNA 1: B1 RNA 1
RNA 2: B1 RNA 2 with G44U, U45C, C47G, G48U, A51U
B10: target 1 insA 3' of 19,insA 3' of 10 (mixed)
RNA 1: B1 RNA 1
RNA 2: B2 RNA 2 with G35A, A36G, G37A, C38G, A42U, U44A
B11: target 1 insC 3' of 22,insU 3' of 2 (mixed)
RNA 1: B1 RNA 1
RNA 2: B7 RNA 2 with A31C, C52U
B12: target 1 insA 3' of 17,insG 3' of 16 (mixed)
RNA 1: B1 RNA 1
RNA 2: B2 RNA 2 with G37A, C38G, A39G, G40A, A42G
B13: target 1 G17U,C21U (mixed)
RNA 1: B1 RNA 1
RNA 2: B3 RNA 2 with C31U, G35U, C37G, U45C
B14: target 1 insG 3' of 18,insA 3' of 17 (mixed)
RNA 1: B1 RNA 1
RNA 2: B2 RNA 2 with A36G, G37A, C38A, A39G, G40A, A42G
B15: target 1 G13U,C22U (mixed)
RNA 1: B1 RNA 1
RNA 2: B3 RNA 2 with C30U, C37G, G39U, U45C

For the data set, the target named is T1, EsCas13d, nuclease-dead. Put plainly: crRNA (strand 1, pre-loaded); Mg2+; 40 mM Tris-HCl pH 7.5, 150 mM NaCl, 6 mM MgCl2, 1 mM DTT, 0.1% Tween-20, 0.2 mg/ml BSA; 25 C; 10 min per concentration, then washed. To be noted: tags: His6-TwinStrep-SUMO cleaved; N-terminal SNAP kept (SNAP-Surface 488); label: 3' end held by stalled T7 RNA polymerase.
As to B1, the Kd turned out to be 10.3 ± 0.8 nM. In turn, B2 returned a Kd of 77 ± 24 nM. Turning to B3, binding was put at a Kd of 48 ± 7 nM. Molecule B4 yielded a Kd of 7.9 ± 0.9 nM. With B5, the Kd was determined as 38 ± 6 nM.

Take B6: the Kd was 34 ± 6 nM. For B7, the Kd was 16.1 ± 2.5 nM. Regarding B8, the Kd came to 19.9 ± 2.5 nM.

On to B9, for which the Kd was 17.8 ± 2.9 nM. In the case of B10, binding was put at a Kd of 30.7 ± 1.4 nM. The molecule B11 came in with a Kd of 23 ± 4 nM. The molecule B12 had a Kd of 18.7 ± 1.5 nM. In turn, B13 registered a Kd of 12 ± 0.9 nM. For B14, binding was put at a Kd of 53 ± 8 nM. The molecule B15 registered a Kd of 82 ± 27 nM.
